Experimental data reported in paper PMC3714538.

target: LC3B (protein of the ITC experiments) (UniProt Q9GZQ8); test: ITC

| Kd [µM] | Substance |
| --- | --- |
| 67 | OPTN peptide LIR_P0 (no phosphorylation) (from UniProt Q96CV9 169-184) |
| 13 | OPTN peptide LIR_P1 (pSer177) (from UniProt Q96CV9 169-184) |
| 5 | OPTN peptide LIR_Ptot (all serines phosphorylated) (from UniProt Q96CV9 169-184) |
